Measurements taken from IntAct's records for PubMed 31515488.

B1: Septin-12 (Homo sapiens), Q8IYM1 (parent)
chain: MDPLRRSPSPCLSSQPSSPSTPPCEMLGPVGIEAVLDQLKIKAMKMGFEFNIMVVGQSGLGKSTMVNTLFKSKVWKSNPPGLGVPTPQTLQLHSLTHVIEEKGVKLKLTVTDTPGFGDQINNDNCWDPILGYINEQYEQYLQEEILITRQRHIPDTRVHCCVYFVPPTGHCLRPLDIEFLQRLCRTVNVVPVIARADSLTMEEREAFRRRIQQNLRTHCIDVYPQMCFDEDINDKILNSKLRDRIPFAVVGADQEHLVNGRCVLGRKTKWGIIEVENMAHCEFPLLRDLLIRSHLQDLKDITHNIHYENYRVIRLNESHLLPRGPGWVNLAPASPGQLTTPRTFKVCRGAHDDSDDEF
partner: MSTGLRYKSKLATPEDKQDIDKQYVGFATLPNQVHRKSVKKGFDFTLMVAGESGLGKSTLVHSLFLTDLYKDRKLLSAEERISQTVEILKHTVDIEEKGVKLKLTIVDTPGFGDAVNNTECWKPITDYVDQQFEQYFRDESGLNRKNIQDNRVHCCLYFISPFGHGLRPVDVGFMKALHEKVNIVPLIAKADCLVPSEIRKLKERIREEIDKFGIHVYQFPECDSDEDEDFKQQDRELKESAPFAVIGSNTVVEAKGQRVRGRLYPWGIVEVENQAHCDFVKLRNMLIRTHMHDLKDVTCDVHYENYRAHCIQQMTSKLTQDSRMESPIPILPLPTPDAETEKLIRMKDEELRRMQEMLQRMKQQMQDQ
B2: Flavin-containing monooxygenase 3 (Homo sapiens), P31513 (parent)
chain: MGKKVAIIGAGVSGLASIRSCLEEGLEPTCFEKSNDIGGLWKFSDHAEEGRASIYKSVFSNSSKEMMCFPDFPFPDDFPNFMHNSKIQEYIIAFAKEKNLLKYIQFKTFVSSVNKHPDFATTGQWDVTTERDGKKESAVFDAVMVCSGHHVYPNLPKESFPGLNHFKGKCFHSRDYKEPGVFNGKRVLVVGLGNSGCDIATELSRTAEQVMISSRSGSWVMSRVWDNGYPWDMLLVTRFGTFLKNNLPTAISDWLYVKQMNARFKHENYGLMPLNGVLRKEPVFNDELPASILCGIVSVKPNVKEFTETSAIFEDGTIFEGIDCVIFATGYSFAYPFLDESIIKSRNNEIILFKGVFPPLLEKSTIAVIGFVQSLGAAIPTVDLQSRWAAQVIKGTCTLPSMEDMMNDINEKMEKKRKWFGKSETIQTDYIVYMDELSSFIGAKPNIPWLFLTDPKLAMEVYFGPCSPYQFRLVGPGQWPGARNAILTQWDRSLKPMQTRVVGRLQKPCFFFHWLKLFAIPILLIAVFLVLT
partner: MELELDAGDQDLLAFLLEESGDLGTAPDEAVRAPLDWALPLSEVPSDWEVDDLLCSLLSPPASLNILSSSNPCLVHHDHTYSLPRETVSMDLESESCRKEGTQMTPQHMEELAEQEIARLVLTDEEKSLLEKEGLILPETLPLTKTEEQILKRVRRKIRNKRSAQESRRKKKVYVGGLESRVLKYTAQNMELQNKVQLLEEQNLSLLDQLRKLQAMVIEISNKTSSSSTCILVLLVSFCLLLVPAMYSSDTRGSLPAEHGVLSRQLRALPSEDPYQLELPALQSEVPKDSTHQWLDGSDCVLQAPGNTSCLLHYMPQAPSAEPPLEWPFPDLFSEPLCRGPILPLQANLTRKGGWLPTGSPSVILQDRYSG
B3: Placental protein 13-like (Homo sapiens), Q8TCE9 (parent)
chain: MSSLPVPYTLPVSLPVGSCVIITGTPILTFVKDPQLEVNFYTGMDEDSDIAFQFRLHFGHPAIMNSCVFGIWRYEEKCYYLPFEDGKPFELCIYVRHKEYKVMVNGQRIYNFAHRFPPASVKMLQVFRDISLTRVLISD
partner: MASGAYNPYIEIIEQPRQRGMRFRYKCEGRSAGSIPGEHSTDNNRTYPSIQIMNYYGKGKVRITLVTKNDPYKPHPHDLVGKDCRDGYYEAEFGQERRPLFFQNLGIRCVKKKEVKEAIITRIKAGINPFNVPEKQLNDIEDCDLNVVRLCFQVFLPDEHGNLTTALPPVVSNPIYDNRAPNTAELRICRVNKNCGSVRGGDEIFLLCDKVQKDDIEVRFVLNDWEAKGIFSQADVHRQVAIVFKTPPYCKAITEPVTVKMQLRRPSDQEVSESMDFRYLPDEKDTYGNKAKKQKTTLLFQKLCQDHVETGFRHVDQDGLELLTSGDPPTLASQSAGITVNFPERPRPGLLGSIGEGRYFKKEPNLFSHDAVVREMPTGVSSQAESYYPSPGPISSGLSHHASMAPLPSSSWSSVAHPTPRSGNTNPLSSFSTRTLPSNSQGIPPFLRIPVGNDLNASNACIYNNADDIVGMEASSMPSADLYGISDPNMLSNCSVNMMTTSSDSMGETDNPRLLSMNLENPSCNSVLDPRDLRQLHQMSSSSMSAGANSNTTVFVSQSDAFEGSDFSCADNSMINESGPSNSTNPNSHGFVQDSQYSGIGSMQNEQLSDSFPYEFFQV
B4: Nucleolar protein 12 (Homo sapiens), Q9UGY1 (parent)
chain: MGRNKKKKRDGDDRRPRLVLSFDEEKRREYLTGFHKRKVERKKAAIEEIKQRLKEEQRKLREERHQEYLKMLAEREEALEEADELDRLVTAKTESVQYDHPNHTVTVTTISDLDLSGARLLGLTPPEGGAGDRSEEEASSTEKPTKALPRKSRDPLLSQRISSLTASLHAHSRKKVKRKHPRRAQDSKKPPRAPRTSKAQRRRLTGKARHSGE
B5: Guanine nucleotide exchange factor for Rab-3A (Homo sapiens), Q8TBN0 (parent)
chain: MWSGPPQPDQGLPPPLAAVPVPWKSTDPCQGHRESPGALVETSAGEEAQGQEGPAAAQLDVLRLRSSSMEIREKGSEFLKEELHRAQKELKLKDEECERLSKVREQLEQELEELTASLFEEAHKMVREANMKQAASEKQLKEARGKIDMLQAEVTALKTLVITSTPASPNRELHPQLLSPTKAGPRKGHSRHKSTSSTLCPAVCPAAGHTLTPDREGKEVDTILFAEFQAWRESPTLDKTCPFLERVYREDVGPCLDFTMQELSVLVRAAVEDNTLTIEPVASQTLPTVKVAEVDCSSTNTCALSGLTRTCRHRIRLGDSKSHYYISPSSRARITAVCNFFTYIRYIQQGLVRQDAEPMFWEIMRLRKEMSLAKLGFFPQEA
partner: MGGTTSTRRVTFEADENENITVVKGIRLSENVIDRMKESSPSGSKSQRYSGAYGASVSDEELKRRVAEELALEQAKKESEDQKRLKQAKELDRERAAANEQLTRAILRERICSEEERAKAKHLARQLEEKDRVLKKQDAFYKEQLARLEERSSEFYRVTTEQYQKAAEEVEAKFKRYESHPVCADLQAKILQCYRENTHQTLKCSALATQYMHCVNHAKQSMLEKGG
B6: Coiled-coil domain-containing protein 172 (Homo sapiens), P0C7W6 (parent)
chain: MSLESLFQHIIFTEHQAEESRRLMREVRSEITRCREKIKKATEELNEEKIKLESKVQQFFEKSFFLQLLKAHENALEKQYSEITNHRNMLLQTFEAIKKQMIEEEDKFIKEITDFNNDYEITKKRELLMKENVKIEISDLENQANMLKSEMKSMEHDSSQLNELQKQKSELIQELFTLQRKLKVFEDEENESICTTKYLEAEKIKISEKPQNDTECLRLKKELELYKEDDMESVYEALQTEIEFLELTLAQKDLQESK
partner: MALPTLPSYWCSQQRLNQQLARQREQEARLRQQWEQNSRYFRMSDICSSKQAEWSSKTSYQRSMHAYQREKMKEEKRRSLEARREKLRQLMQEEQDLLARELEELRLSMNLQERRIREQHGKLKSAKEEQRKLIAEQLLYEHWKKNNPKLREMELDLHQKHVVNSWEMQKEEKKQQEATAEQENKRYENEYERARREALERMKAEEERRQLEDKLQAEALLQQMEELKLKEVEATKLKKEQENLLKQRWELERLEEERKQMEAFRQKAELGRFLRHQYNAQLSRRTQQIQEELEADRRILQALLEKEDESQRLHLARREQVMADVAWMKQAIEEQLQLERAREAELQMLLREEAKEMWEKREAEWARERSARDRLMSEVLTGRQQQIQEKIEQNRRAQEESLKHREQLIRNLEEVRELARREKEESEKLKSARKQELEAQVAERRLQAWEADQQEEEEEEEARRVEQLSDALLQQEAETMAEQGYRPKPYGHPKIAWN
B7: DNA mismatch repair protein Mlh1 (Homo sapiens), P40692 (parent)
chain: MSFVAGVIRRLDETVVNRIAAGEVIQRPANAIKEMIENCLDAKSTSIQVIVKEGGLKLIQIQDNGTGIRKEDLDIVCERFTTSKLQSFEDLASISTYGFRGEALASISHVAHVTITTKTADGKCAYRASYSDGKLKAPPKPCAGNQGTQITVEDLFYNIATRRKALKNPSEEYGKILEVVGRYSVHNAGISFSVKKQGETVADVRTLPNASTVDNIRSIFGNAVSRELIEIGCEDKTLAFKMNGYISNANYSVKKCIFLLFINHRLVESTSLRKAIETVYAAYLPKNTHPFLYLSLEISPQNVDVNVHPTKHEVHFLHEESILERVQQHIESKLLGSNSSRMYFTQTLLPGLAGPSGEMVKSTTSLTSSSTSGSSDKVYAHQMVRTDSREQKLDAFLQPLSKPLSSQPQAIVTEDKTDISSGRARQQDEEMLELPAPAEVAAKNQSLEGDTTKGTSEMSEKRGPTSSNPRKRHREDSDVEMVEDDSRKEMTAACTPRRRIINLTSVLSLQEEINEQGHEVLREMLHNHSFVGCVNPQWALAQHQTKLYLLNTTKLSEELFYQILIYDFANFGVLRLSEPAPLFDLAMLALDSPESGWTEEDGPKEGLAEYIVEFLKKKAEMLADYFSLEIDEEGNLIGLPLLIDNYVPPLEGLPIFILRLATEVNWDEEKECFESLSKECAMFYSIRKQYISEESTLSGQQSEVPGSIPNSWKWTVEHIVYKALRSHILPPKHFTEDGNILQLANLPDLYKVFERC

Variants of: B1
Details: with sept5_human SEPTIN5, Q99719

effect of a mutation on the interaction	Variant
disrupting interaction strength	D197N
disrupting interaction strength	T111K
with no effect	C184S
disrupting interaction strength	Q213R
disrupting interaction strength	V263D
disrupting interaction strength	G169E
disrupting interaction strength	V162M

Variants of: B2
Details: with creb3_human CREB3, O43889

effect of a mutation on the interaction	Variant
with no effect	G180V
with no effect	E158K

Variants of: B3
Details: with rel_human REL

effect of a mutation on the interaction	Variant
with no effect	M123T

Variants of: B4
Details: with cep70_human CEP70, Q8NHQ1

effect of a mutation on the interaction	Variant
with no effect	Y98H

Variants of: B5
Details: with mic19_human CHCHD3, Q9NX63

effect of a mutation on the interaction	Variant
with no effect	S190P
with no effect	Q49R

Variants of: B6
Details: with tchp_human TCHP

effect of a mutation on the interaction	Variant
with no effect	I10V

Variants of: B7
Details: with msh3_human MSH3, P20585

effect of a mutation on the interaction	Variant
with no effect	S406N
with no effect	A441T
with no effect	V213M

Variants of: B7
Details: with ima1_human KPNA2, P52292

effect of a mutation on the interaction	Variant
with no effect	S406N
with no effect	A441T
with no effect	V213M

Variants of: B7
Details: with psa1_human PSMA1, P25786

effect of a mutation on the interaction	Variant
with no effect	S406N
with no effect	A441T
with no effect	V213M
